The values that follow come from PMC5041093, “Acidic Residues Control the Dimerization of the N-terminal Domain of Black Widow Spiders’ Major Ampullate Spidroin 1” (Scientific Reports, 2016).

In data set [1] the target is NRN1_(L.h.) variant E114Q (Latrodectus hesperus). Description: NMR 15N relaxation (T1, T2; rotational correlation time); 15N-labelled E114Q, 22 mM sodium phosphate pH 7.2 without salt, 10% D2O; molecular weight estimated from the rotational correlation time.
Data set [2] has the same target. Description: SEC-MALS; Superdex 200 10/300 GL, 20 mM sodium phosphate pH 7.2 without NaCl, 71.2 μM protein injected; monomer to dimer. (In general: In gel filtration, larger molecules generally elute earlier.)
Data set [3] deals with the molecule itself. Description: SEC-MALS; Superdex 200 10/300 GL, 20 mM sodium phosphate pH 6.0 without NaCl, 71.2 μM protein injected; monomer to dimer.

A word on the stoichiometry N: it is a count of units in the complex or per binding partner. As for “NRN1_(L.h.) variant E114Q (domain or fragment)”, the stoichiometry N in data set [1] and in data set [2] was 2 each time.

B1: amino-terminal domain of Latrodectus hesperus major ampullate spidroin 1, wildtype (domain or fragment)
chain: QANTPWSSKANADAFINSFISAASNTGSFSQDQMEDMSLIGNTLMAAMDNMGGRITPSKLQALDMAFASSVAEIAASEGGDLGVTTNAIADALTSAFYQTTGVVNSRFISEIRSLIGMFAQASANDVYASAGS
notes: non-repetitive amino-terminal domain (NRN1) of major ampullate spidroin 1 (MaSp1), Latrodectus hesperus; also called wtNRN1_(L.h.); NRN1_(L.h.); source: E. coli BL21 (DE3), purified (nickel-NTA, SEC)
Turning to B1, the “stoichiometry N” value in data set [3] is 2.
